Test system: MS2 coat protein
Experiment: apparent KD of MS2 coat protein; designed switch direction (-1 OFF switch, 1 ON switch): -1; higher = weaker reporter binding
Summary of the method: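 Designed RNA switches with common flanks were made on Illumina chips by stalled E. coli RNA polymerase. Titration with SNAP-549-labelled MS2 coat protein doubled from 0.7 or 1.5 nM up to 3 µM. Apparent KD is each design's median over clusters after curve-fitting normalised fluorescence.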

[1] = input ligand: microRNA oligo, concentration not stated
[2] = Eterna round: R95, input ligand: microRNA oligo, concentration not stated
[3] = Eterna round: R95, input ligand: FMN 200 uM
[4] = Eterna round: R95, input ligand: none

UAUUUAUAGCAAGGAUAUGAUUAUUAUUAUUUAUCAGAAGGUGCACAUGAGGAUCACCCAUGUUUUAUAUAUAAUAAUUUAAUU [Title] (Eterna round: R96, puzzle: Exclusion NG 1)
apparent KD of MS2 coat protein [1]: 82.5 nM

GGAUUCCAGUGAGGAUAUCCAAAUAAAAGCCAUGGAGAAGGCACAUGAGGAUCACCCAUGUAGGGCAAUAGCAGCGACCACUGC [Raqube] (Eterna round: R96, puzzle: Exclusion NG 1)
apparent KD of MS2 coat protein (input ligand: FMN 200 uM): 59.4 nM | apparent KD of MS2 coat protein [1]: 27.6 nM | apparent KD of MS2 coat protein (input ligand: none): 29.3 nM

UUUUUACGAGGAUAUCGUUUUUUUCACAUGAGGAUCACCCAUGUUGUUUAUGUUUCGUUGCGAGAAGGCGUUUGUU [JR_E5_Sub064] (puzzle: Exclusion 5)
apparent KD of MS2 coat protein [2]: 24.3 nM

UUUUACAUAGGAUAUAGUUUCUUUUACAUGAGGAUCACCCAUGUCUCUCCUCUCUCUCUUCUAGAAGGAUGUUUCU [JR_E5_Sub012] (puzzle: Exclusion 5)
apparent KD of MS2 coat protein [2]: 86.1 nM

GUGUAGUCAGGAUAUACAUGAGGAUCACCCAUGUGAAUAAGAUAGAAUAAGAUAAAGUGUAGAAGGGACAGUGU [Excluse me!!! 4 - Jieux - Exclusion 3] (puzzle: Exclusion 3)
apparent KD of MS2 coat protein [3]: 33.8 nM | apparent KD of MS2 coat protein [2]: 34.1 nM | apparent KD of MS2 coat protein [4]: 35.9 nM

GCACUGCGAGGAUAUACAUGAGGAUCACCCAUGUGUCGGCAGCCAUGUUAUUUCUAAUGUAGAAGGCGCGUAAA [JR_Ex3_Sub001] (Eterna round: R97, puzzle: Exclusion 3)
apparent KD of MS2 coat protein (input ligand: FMN 200 uM): 125 nM | apparent KD of MS2 coat protein (input ligand: none): 33 nM

GCAUUGAGUGUGAGGAUAUGCUGGUCCUUGGAUCAGCAGAAGGCACAUGAGGAUCACCCAUGUGAAAACAAUGC [JL bmx4 3.12] (puzzle: Brourd's mod of Exclusion 4)
apparent KD of MS2 coat protein [3]: 125 nM | apparent KD of MS2 coat protein [2]: 19.2 nM | apparent KD of MS2 coat protein [4]: 20.3 nM

GCAGCAUAGAUGAAAAUCUGAUACAUGAGGAUCACCCAUGUUCAGGAUAUGGUCUGGAUUACAGGCCAGAAGGGAACAAGCUGC [Eli exng3 - 011] (Eterna round: R96, puzzle: Exclusion NG 3)
apparent KD of MS2 coat protein (input ligand: FMN 200 uM): 14 nM | apparent KD of MS2 coat protein [1]: 10.3 nM | apparent KD of MS2 coat protein (input ligand: none): 12 nM

GUAAUGCUGCGAGGAUAUACAUGAGGAUCACCCAUGUGGAUGUCUGAGGCAAAGCCUCAGACGAUGUAGAAGGCGCAGUAAAAU [Mat - Exclusion NG 2 - Mod of JL - D54] (Eterna round: R96, puzzle: Exclusion NG 2)
apparent KD of MS2 coat protein (input ligand: FMN 200 uM): 85.7 nM | apparent KD of MS2 coat protein [1]: 17.6 nM | apparent KD of MS2 coat protein (input ligand: none): 44.4 nM

AAUAAGCGAGGAUAUACAUGAGGAUCACCCAUGUGGACCGGGUGUUCAGCAAAUAAAAGUAGAAGGCGCAAAAG [Tibiater] (puzzle: Exclusion 3)
apparent KD of MS2 coat protein [3]: 29.1 nM | apparent KD of MS2 coat protein [2]: 46.8 nM | apparent KD of MS2 coat protein [4]: 25.8 nM

AGAAAUGCCCAUGGCCACAAGCUUUUUGCUUGUCUUACUACAUGAGGAUCACCCAUGUACCAUGGGCUCCUGAUAAU [Anxemaes] (puzzle: Sensor v3, turn-off variant 2)
apparent KD of MS2 coat protein [3]: 13.8 nM | apparent KD of MS2 coat protein [2]: 9.75 nM | apparent KD of MS2 coat protein [4]: 10.4 nM

UAAAUGUGAGGAUAUUCGUAGAACUCGGAGACGAGUUUUACGGAGAAGGCACAUGAGGAUCACCCAUGUUCCUU [Mat - Exclusion 4 - JL Mod - D2] (Eterna round: R97, puzzle: Exclusion 4)
apparent KD of MS2 coat protein (input ligand: FMN 200 uM): 169 nM | apparent KD of MS2 coat protein (input ligand: none): 28.6 nM

CUUCGACAUGAGGAUCACCCAUGUCAGGAUAUUGUGUAUCGGGUUUUUUACGGAAAGGCGAGAAGGGAUGUGUG [LRO-Excl1-09] (puzzle: Exclusion 1)
apparent KD of MS2 coat protein [2]: 22 nM

GGUUUUCUUUUCCUUUCUUACAUGAGGAUCACCCAUGUUUCUUGUCGUGCUCGCGUUGCUCGUCUGUCUGUCUGUUG [salish99_TOv1_r3_076(!)] (puzzle: Sensor v3, turn-off variant 1)
apparent KD of MS2 coat protein [3]: 45.9 nM | apparent KD of MS2 coat protein [2]: 35.7 nM | apparent KD of MS2 coat protein [4]: 56.9 nM

CUUUUGUGAGGAUAUCAGUAGUAAAUAAAUAAAUUAACUACUGAGAAGGCACAUGAGGAUCACCCAUGUUCCUU [Mat - Exclusion 4 - Mod of Salish - D65] (puzzle: Exclusion 4)
apparent KD of MS2 coat protein [2]: 13.7 nM

AAGUAUAGAGGAUAUAGUGAGUACUACAUGAGGAUCACCCAUGUUCUUCAAAGCGUAUUUCUAGAAGGCUGUUAAA [EX-5 Malc#18] (puzzle: Exclusion 5)
apparent KD of MS2 coat protein [3]: 123 nM | apparent KD of MS2 coat protein [2]: 48.7 nM | apparent KD of MS2 coat protein [4]: 53.1 nM

AAUAACAGAGGAUAUACUAUUUUAUGUGUUUGUUGUUUUAAACAUGAGGAUCACCCAUGUAGAAGGCUGAAUGA [JMF 61] (puzzle: Exclusion 2)
apparent KD of MS2 coat protein [2]: 23.8 nM

UAUUAGUGAGGAUAUGAGUCGUAGAACAAUAGUACUACGUCUCAGAAGGUACAUGAGGAUCACCCAUGUUUCUC [Fiskers Ex 4 Super Stable 44 mod 33] (puzzle: Exclusion 4)
apparent KD of MS2 coat protein [2]: 18.8 nM

GGCAUGUAAGGAUAUGCCACUGAGUGCUUUGCGCUCAGGAAGCAGAAGGUACAUGAGGAUCACCCAUGUGAUAA [jl-ex4-4.52 ViennaUCT mod] (Eterna round: R97, puzzle: Exclusion 4)
apparent KD of MS2 coat protein (input ligand: FMN 200 uM): 109 nM | apparent KD of MS2 coat protein (input ligand: none): 714 nM

AAGUCAACAUGAGGAUCACCCAUGUCCAAGUUGAUGUCCUGUGAGGAUAUGUGUAAACGGCCGGCACAGAAGGCACAAGACGCG [Eternabot solution 5] (Eterna round: R96, puzzle: Exclusion NG 3)
apparent KD of MS2 coat protein (input ligand: FMN 200 uM): 32.3 nM | apparent KD of MS2 coat protein [1]: 30.4 nM | apparent KD of MS2 coat protein (input ligand: none): 34.5 nM

CGUGACUGAGGAUAUCUAUAAUGUCACAUGAGGAUCACCCAUGUCCAGCGAAAGCUGGAGGGAGAAGGCAGUCACG [Fiskers Ex 5 - 33] (puzzle: Exclusion 5)
apparent KD of MS2 coat protein [3]: 29.4 nM | apparent KD of MS2 coat protein [2]: 55.5 nM | apparent KD of MS2 coat protein [4]: 74.6 nM

CAUUAUUAUCGAGGAUAUCGUAUUGAGAUACUAUGAGAAGGCGGGAUAAACAUGAGGAUCACCCAUGUGAGCCUGAUGCUUGUG [Ex NG1 #37] (Eterna round: R96, puzzle: Exclusion NG 1)
apparent KD of MS2 coat protein (input ligand: FMN 200 uM): 17.4 nM | apparent KD of MS2 coat protein [1]: 14.3 nM | apparent KD of MS2 coat protein (input ligand: none): 19.3 nM

GCAGCUUAGUUAACAGACUGUUACAUGAGGAUCACCCAUGUACAGGAUAUGGUCUGGAUUACAGGCCAGAAGGGUACAAGCUGC [Eli exng3 - 018] (Eterna round: R96, puzzle: Exclusion NG 3)
apparent KD of MS2 coat protein (input ligand: FMN 200 uM): 9.62 nM | apparent KD of MS2 coat protein [1]: 9.01 nM | apparent KD of MS2 coat protein (input ligand: none): 11.5 nM

UUCUUGGCAGGAUAUGCUUUUUUAGACAUGAGGAUCACCCAUGUGUUUAUUUUUUUUUUUGCAGAAGGGCCUUAAU [JR_E5_Sub043] (puzzle: Exclusion 5)
apparent KD of MS2 coat protein [2]: 26.9 nM

GUGUAGACAGGAUAUGCUUUGAGCGUAUGAGAGUAGGCUCGACAUGAGGAUCACCCAUGUAGAAGGGUCUACAC [LRO-Excl2-03] (puzzle: Exclusion 2)
apparent KD of MS2 coat protein [2]: 10.1 nM

CGAGCCUAUGUAAGGAUAUCACAAUAAAACCAGUGUGAGAAGGUACAUGAGGAUCACCCAUGUUCACGACUGGC [BmEX4 A.26] (Eterna round: R97, puzzle: Brourd's mod of Exclusion 4)
apparent KD of MS2 coat protein (input ligand: FMN 200 uM): 16.9 nM | apparent KD of MS2 coat protein (input ligand: none): 16.8 nM

GGCCCUAAGGUCAGAUCCACAAGCUUUUUGCUCGUUUUAACAUGAGGAUCACCCAUGUCUAGUGGAUUUGAUCCUCU [Sensor v3, turn-off variant 2 (MOD of Indiso v.8)] (puzzle: Sensor v3, turn-off variant 2)
apparent KD of MS2 coat protein [3]: 27.9 nM | apparent KD of MS2 coat protein [2]: 9.69 nM | apparent KD of MS2 coat protein [4]: 33.5 nM

AAAUUAGCAAGUAGAUCCGACAUGAGGAUCACCCAUGUUAUCUGAAAGAACGCAGCAUAAUUGUGAGCUCGUCUAAA [Sensor-V1 #4] (Eterna round: R97, puzzle: Sensor, turn-off variant 1)
apparent KD of MS2 coat protein (input ligand: FMN 200 uM): 93.7 nM | apparent KD of MS2 coat protein (input ligand: none): 91.5 nM

UAUUAGUGAGGAUAUGAGUCGUAGAACAAUAGUACUACGUCUCAGAAGGCACAUGAGGAUCACCCAUGUUCCUU [Mod of Fisker - Jieux - Exclusion 4] (Eterna round: R97, puzzle: Exclusion 4)
apparent KD of MS2 coat protein (input ligand: FMN 200 uM): 71.3 nM | apparent KD of MS2 coat protein (input ligand: none): 16.1 nM

ACCUCACAUGAGGAUCACCCAUGUUAGGAUAUCUCGAUGCUCCGCGGGCGGGAGCAUCAGAGAAGGAACGUGCA [Geusarvees] (puzzle: Exclusion 1)
apparent KD of MS2 coat protein [2]: 18.3 nM

CCUCAGUGAGGAUAUCAGUAAUGUAAGACGUACAGUCGCACUGAGAAGGUACAUGAGGAUCACCCAUGUUAGUU [Eternabot (L1) Solution 50] (Eterna round: R97, puzzle: Exclusion 4)
apparent KD of MS2 coat protein (input ligand: FMN 200 uM): 31.3 nM | apparent KD of MS2 coat protein (input ligand: none): 23 nM

GGUCUACAUGAGGAUCACCCAUGUAAGGAUAUCGUCACUGGAGCCUCGGCUCCAGUGACGAGAAGGUGCAUAAU [E1/11-A2] (Eterna round: R97, puzzle: Exclusion 1)
apparent KD of MS2 coat protein (input ligand: FMN 200 uM): 48.9 nM | apparent KD of MS2 coat protein (input ligand: none): 36.6 nM

UUAUAAACAUAGGAUAUCGAAUAAAUUAUUUAACGAGAAGGAUGAACAUGAGGAUCACCCAUGUGGUAUCAUGG [Mat - Exclusion 6 - JL Mod - D30] (puzzle: Exclusion 6)
apparent KD of MS2 coat protein [3]: 170 nM | apparent KD of MS2 coat protein [2]: 228 nM | apparent KD of MS2 coat protein [4]: 398 nM

AUGGUACAUGAGGAUCACCCAUGUUAGGAUAUCGCGUGACCUAAAACUAAGAGACACACGAGAAGGGACGACAU (puzzle: Exclusion 1)
apparent KD of MS2 coat protein [2]: 77.3 nM

UGAGUGCUGCGAGGAUAUACAUGAGGAUCACCCAUGUAUACCUGUGAGGCUUUGCCUCACAGGUAGUAGAAGGCGCAGUACUCU [Mat - Exclusion NG 2 - Mod of JL - D44] (Eterna round: R96, puzzle: Exclusion NG 2)
apparent KD of MS2 coat protein (input ligand: FMN 200 uM): 13.1 nM | apparent KD of MS2 coat protein [1]: 9.11 nM | apparent KD of MS2 coat protein (input ligand: none): 12.8 nM
